Experimental data taken from patent publication US20230107644A1 (UNIVERSITY OF ROCHESTER, published 2023).

Key:
Assay in all cases: cell-based or functional assay
[1] = molecular target: HA (H3) of influenza virus A/Wyoming/3/2003 (influenza A virus A/Wyoming/3/2003 …)
[2] = molecular target: NA (N2) of influenza virus A/Wyoming/3/2003 (influenza A virus A/Wyoming/3/2003 …)
[3] = molecular target: NA (N2) of influenza virus A/Victoria/210/2009 (influenza A virus A/Victoria/210/2009 …)
[4] = molecular target: NA (N2) of influenza virus A/Switzerland/9715283/2013 (influenza A virus …)

B1: 1092C4 hmAb (antibody, V domains shown)
VH: EVQLVQSGAEVKKPGASVKVSCKASGYSFTRYGISWVRQAPGQGLEWMGWISAYTGNTDYAQKFQGRITMTTDTSTSTAYMELRSLRSDDTAVYYCARDLPQGVVILGSYYYGMDVWGQGNTVTVSS
VL: EIVLTQSPGTLSLSPGERATLSCRASQSVTSRYLAWYQQKLGQAPRLLIYGASSRATGIPDRFSGSGSGTDFTLTISSLEPEDLAVYYCQQSGSPRTFGQGTKVEIK
NT50 [1]: 1.6 µg/mL

B2: 1092E4 hmAb (antibody, V domains shown)
VH: QVQLVQSGAEVKKPGASVKVSCKASGYSFTRYGISWVRQAPGQGLEWMGWISAYTGNTDYAQKFQGRITMTTDTSTSTVYMELRSLRSDDTAVYYCARDHPQGVVILGSYYYGMDVWGQGNTVTVSS
VL: EIVLTQSPGTLSLSPGERATLSCRASQSVTSRYLAWYQQKLGQAPRLLIYGASSRATGIPDRFSGSGSGTDFTLTISSLEPEDFAVYYCQQSGSPRTFGQGTKVEIK
NT50 [1]: 3.13 µg/mL

B3: 1122A11 hmAb (antibody, V domains shown)
VH: QVQLVQSGAEVSKPGASVKVSCKASGYSFTSQSLGWVRQAPGQGLEWMGIINPSGGITNYAHKFQGRVTMTRDTSTSTVYMELSSLRSEDTALYYCVRDLSHYNEVGHDRAYYYGMDIWGQGTTVTVSS
VL: SYELIQPPSVSVSPGQTASITCSGDKLGKKYTCWYQQKPGQSPVLVIYQDNKRPSGIPERFSGSNSGNTATLTISGTQAMDEADYYCQAWDSSAVVFGGGTKLTVL
NT50 [2]: 6.25 µg/mL
NT50 [3]: 25 µg/mL
NT50 [4]: 25 µg/mL

B4: 1086G8 hmAb (antibody, V domains shown)
VH: EVQLLESGGGLVQPGGSLRLSCTASGFTFASDAMNWVRQAPGKGLEWVSAISGNGGITYFADSVKGRFTISRDNSKDTLYLQMDSLRAEDTAVYYCAKGVAPSHFNLLTGYYAGHYYFDFWGQGTLVTVSS
VL: EIVMTQSPATLSVSPGERATLSCRASQSVRHNLAWYQHKPGQPPRLLIYGASTRAASVPARFSGSGSGTDFTLTISSLQSEDFAVYYCQQYNHWPPYTFGQGTKLEIK
NT50 [1]: 0.78 µg/mL
